From patent publication EP4682162A1 (Neowise Biotechnology Co., Ltd., dated 2026)
Positions count from the first letter of the chain named.

Assays:
[1] = molecular target: T1, labeled peptide-MHC (HLA-A*02:01) tetramer (…-HLA-A*02:01 tetramer) (human); assay: tetramer staining of sorted T cell clones, flow cytometry
T1 construct: Labeled tetramer used for flow cytometry staining; also called pMHC; pMHC tetramer

[2] = molecular target: T1, labeled peptide-MHC (HLA-A*02:01) …; assay: pMHC tetramer staining of edited CD8+ T cells, flow cytometry

B1: nwTCR-2970 (TCR, V domains shown)
V domain 1: QQPVQSPQAVILREGEDAVINCSSSKALYSVHWYRQKHGEAPVFLMILLKGGEQKGHDKISASFNEKKQQSSLYLTASQLSYSGTYFCGTEFRNDYKLSFGAGTTVTVRA
V domain 2: EAQVTQNPRYLITVTGKKLTVTCSQNMNHEYMSWYRQDPGLGLRQIYYSMNVEVTDKGDVPEGYKVSRKEKRNFPLILESPSPNQTSLYFCASSPGTGGYGYTFGSGTRLTVVE
notes: TCR on T cells
binding result [1]: binds

B2: nwTCR-1954 (TCR, V domains shown)
V domain 1: QKEVEQNSGPLSVPEGAIASLNCTYSDRGSQSFFWYRQYSGKSPELIMSIYSNGDKEDGRFTAQLNKASQYVSLLIRDSQPSDSATYLCAVLRSNDYKLSFGAGTTVTVRA
V domain 2: B1 V domain 2 with G98S, Y100N, G101E, Y102Q, T103F, S106P, V113L
notes: TCR on T cells
binding result [1]: binds

B3: nwTCR-2169 (TCR, V domains shown)
V domain 1: SQQGEEDPQALSIQEGENATMNCSYKTSINNLQWYRQNSGRGLVHLILIRSNEREKHSGRLRVTLDTSKKSSSLLITASRAADTASYFCATLTLNDYKLSFGAGTTVTVRA
V domain 2: EAQVTQNPRYLITVTGKKLTVTCSQNMNHEYMSWYRQDPGLGLRQIYYSMNVEVTDKGDVPEGYKVSRKEKRNFPLILESPSPNQTSLYFCATQWASGSTDTQYFGPGTRLTVLE
notes: TCR on T cells
binding result [2]: binds

B4: nwTCR-2006 (TCR, V domains shown)
V domain 1: AQSVTQLDSHVSVSEGTPVLLRCNYSSSYSPSLFWYVQHPNKGLQLLLKYTSAATLVKGINGFEAEFKKSETSFHLTKPSAHMSDAAEYFCVVSITGFQKLVFGTGTRLLVSP
V domain 2: GAVVSQHPSRVICKSGTSVKIECRSLDFQATTMFWYRQFPKQSLMLMATSNEGSKATYEQGVEKDKFLINHASLTLSTLTVTSAHPEDSSFYICSATEDNEKLFFGSGTQLSVLE
notes: TCR on T cells
binding result [2]: binds

B5: nwTCR-3271 (TCR, V domains shown)
V domain 1: DQQVKQNSPSLSVQEGRISILNCDYTNSMFDYFLWYKKYPAEGPTFLISISSIKDKNEDGRFTVFLNKSAKHLSLHIVPSQPGDSAVYFCAAKPDKLIFGTGTRLQVFP
V domain 2: SAVISQKPSRDICQRGTSLTIQCQVDSQVTMMFWYRQQPGQSLTLIATANQGSEATYESGFVIDKFPISRPNLTFSTLTVSNMSPEDSSIYLCSVWGAGLAIYNEQFFGPGTRLTVLE
notes: TCR on T cells
binding result [1]: binds

B6: nwTCR-3028 (TCR, V domains shown)
V domain 1: SQQGEEDPQALSIQEGENATMNCSYKTSINNLQWYRQNSGRGLVHLILIRSNEREKHSGRLRVTLDTSKKSSSLLITASRAADTASYFCATDVKSSYKLIFGSGTRLLVRP
V domain 2: AAGVIQSPRHLIKEKRETATLKCYPIPRHDTVYWYQQGPGQDPQFLISFYEKMQSDKGSIPDRFSAQQFSDYHSELNMSSLELGDSALYFCASSLGLLGNEQFFGPGTRLTVLE
notes: TCR on T cells
binding result [1]: binds

B7: nwTCR-3273 (TCR, V domains shown)
V domain 1: SQELEQSPQSLIVQEGKNLTINCTSSKTLYGLYWYKQKYGEGLIFLMMLQKGGEEKSHEKITAKLDEKKQQSSLHITASQPSHAGIYLCGAVPINDYKLSFGAGTTVTVRA
V domain 2: EAQVTQNPRYLITVTGKKLTVTCSQNMNHEYMSWYRQDPGLGLRQIYYSMNVEVTDKGDVPEGYKVSRKEKRNFPLILESPSPNQTSLYFCASSIDSGSSYNEQFFGPGTRLTVLE
notes: TCR on T cells
binding result [1]: binds

B8: nwTCR-3095 (TCR, V domains shown)
V domain 1: DQQVKQNSPSLSVQEGRISILNCDYTNSMFDYFLWYKKYPAEGPTFLISISSIKDKNEDGRFTVFLNKSAKHLSLHIVPSQPGDSAVYFCAAFASDSNYQLIWGAGTKLIIKP
V domain 2: DTAVSQTPKYLVTQMGNDKSIKCEQNLGHDTMYWYKQDSKKFLKIMFSYNNKELIINETVPNRFSPKSPDKAHLNLHINSLELGDSAVYFCASSPWTSGGNGELFFGEGSRLTVLE
notes: TCR on T cells
binding result [1]: binds

B9: nwTCR-2157 (TCR, V domains shown)
V domain 1: QKEVEQNSGPLSVPEGAIASLNCTYSDRGSQSFFWYRQYSGKSPELIMFIYSNGDKEDGRFTAQLNKASQYVSLLIRDSQPSDSATYLCAVPGGTSYGKLTFGQGTILTVHP
V domain 2: DTAVSQTPKYLVTQMGNDKSIKCEQNLGHDTMYWYKQDSKKFLKIMFSYNNKELIINETVPNRFSPKSPDKAHLNLHINSLELGDSAVYFCASSQGISGNTIYFGEGSWLTVVE
notes: TCR on T cells
binding result [2]: binds

B10: nwTCR-3272 (TCR, V domains shown)
V domain 1: QKEVEQNSGPLSVPEGAIASLNCTYSDRGSQSFFWYRQYSGKSPELIMSIYSNGDKEDGRFTAQLNKASQYVSLLIRDSQPSDSATYLCAVPSGNMLTFGGGTRLMVKP
V domain 2: DVKVTQSSRYLVKRTGEKVFLECVQDMDHENMFWYRQDPGLGLRLIYFSYDVKMKEKGDIPEGYSVSREKKERFSLILESASTNQTSMYLCASSSATSGSGEQYFGPGTRLTVTE
notes: TCR on T cells
binding result [1]: binds

B11: nwTCR-2159 (TCR, V domains shown)
V domain 1: QQPVQSPQAVILREGEDAVINCSSSKALYSVHWYRQKHGEAPVFLMILLKGGEQKGHDKISASFNEKKQQSSLYLTASQLSYSGTYFCGTESGRGSTLGRLYFGRGTQLTVWP
V domain 2: DSGVTQTPKHLITATGQRVTLRCSPRSGDLSVYWYQQSLDQGLQFLIQYYNGEERAKGNILERFSAQQFPDLHSELNLSSLELGDSALYFCASSPWTSGSYEQYFGPGTRLTVTE
notes: TCR on T cells
binding result [2]: binds

B12: nwTCR-1953 (TCR, V domains shown)
V domain 1: DAKTTQPNSMESNEEEPVHLPCNHSTISGTDYIHWYRQLPSQGPEYVIHGLTSNVNNRMASLAIAEDRKSSTLILHRATLRDAAVYYCILRAGGSGDKLTFGTGTRLAVRP
V domain 2: DTEVTQTPKHLVMGMTNKKSLKCEQHMGHRAMYWYKQKAKKPPELMFVYSYEKLSINESVPSRFSPECPNSSLLNLHLHALQPEDSALYLCASSQDPFWGAGELFFGEGSRLTVLE
notes: TCR on T cells
binding result [1]: binds

B13: nwTCR-3173 (TCR, V domains shown)
V domain 1: SQQGEEDPQALSIQEGENATMNCSYKTSINNLQWYRQNSGRGLVHLILIRSNEREKHSGRLRVTLDTSKKSSSLLITASRAADTASYFCATYANDYKLSFGAGTTVTVRA
V domain 2: EAQVTQNPRYLITVTGKKLTVTCSQNMNHEYMSWYRQDPGLGLRQIYYSMNVEVTDKGDVPEGYKVSRKEKRNFPLILESPSPNQTSLYFCASSAGTGGFVGYTFGSGTRLTVVE
notes: TCR on T cells
binding result [1]: binds

B14: nwTCR-3125 (TCR, V domains shown)
V domain 1: QKEVEQNSGPLSVPEGAIASLNCTYSDRVSQSFFWYRQYSGKSPELIMSIYSNGDKEDGRFTAQLNKASQYVSLLIRDSQPSDSATYLCALVSGTYKYIFGTGTRLKVLA
V domain 2: DTAVSQTPKYLVTQMGNDKSIKCEQNLGHDTMYWYKQDSKKFLKIMFSYNNKELIINETVPNRFSPKSPDKAHLNLHINSLELGDSAVYFCASSPGLAYEQYFGPGTRLTVTE
notes: TCR on T cells
binding result [1]: binds

B15: nwTCR-3274 (TCR, V domains shown)
V domain 1: QKEVEQNSGPLSVPEGAIASLNCTYSDRGSQSFFWYRQYSGKSPELIMSIYSNGDKEDGRFTAQLNKASQYVSLLIRDSQPSDSATYLCAVVSGGYNKLIFGAGTRLAVHP
V domain 2: EPEVTQTPSHQVTQMGQEVILRCVPISNHLYFYWYRQILGQKVEFLVSFYNNEISEKSEIFDDQFSVERPDGSNFTLKIRSTKLEDSAMYFCASSEGWGGTEAFFGQGTRLTVVE
notes: TCR on T cells
binding result [1]: binds
